The test system of series [1] is AK. Put plainly: AK enzyme activity and inhibition by lysine/threonine in cell-free extracts of AK-deficient Escherichia coli Gif106M1 transformants. The format is biochemical, Corynebacterium glutamicum. The note with it: for Specific activity: Table 4; for 5 mM Lys + Thr (degree of desensitization of inhibition, activity-holding ratio): lysine 5 mM+threonine 5 mM; for 5 mM Lys + Thr (degree of desensitization of inhibition, activity-holding ratio) / 5 mM Lys (degree of desensitization of inhibition, activity-holding ratio) / 5 mM Thr (degree of desensitization of inhibition, activity-holding ratio): activity without addition = 100%, E. coli Gif106M1 extracts; for 5 mM Lys (degree of desensitization of inhibition, activity-holding ratio): lysine 5 mM; for 5 mM Thr (degree of desensitization of inhibition, activity-holding ratio): threonine 5 mM. The source says:
Bacteriol. 112, 84-92 (1972), Theze, J. et al., J. […] It is known that most of genes of bacteria belonging to the genus Corynebacterium are expressed in Escherichia coli. In addition, the AK gene was ligated at a position downstream from lac promoter on pHSG399. Thus it was postulated that the gene could be expressed in Escherichia coli. […] Thus it was confirmed that AK from the bacteria belonging to the genus Corynebacterium was expressed and operated in cells of Escherichia coli. Subsequently, cell-free extracts were prepared from bacterial cells, and the enzyme activity of AK was measured. Upon measurement of the enzyme activity of AK, various concentrations of lysine and threonine were added to enzyme reaction solutions to investigate the degree of inhibition (FIG. 2). […] (Ki value: 0.4 mM→5.0 mM). […] Cell-free extracts were prepared, and enzymes were analyzed.

The subject of the next series is aspartokinase. Put plainly: Aspartokinase (AK) activity of cell-disrupted solutions of Corynebacterium glutamicum strains, with and without L-lysine/L-threonine. The format is biochemical, Corynebacterium glutamicum (Brevibacterium lactofermentum). To be noted: for 2 mM Lys + Thr (desensitization degree of inhibition): 2 mM lysine + threonine; for 2 mM Lys + Thr (desensitization degree of inhibition) / 5 mM Lys (desensitization degree of inhibition) / Specific activity / 5 mM Thr (desensitization degree of inhibition): plasmids introduced into AJ12036; for 5 mM Lys (desensitization degree of inhibition): lysine 5 mM; for Specific activity: Table 5; for 5 mM Thr (desensitization degree of inhibition): threonine 5 mM. The source says:
When a wild type strain is used as a donor for the DNA fragment containing the AK gene, a DNA fragment containing a wild type AK gene can be obtained. The DNA fragment containing the gene for AK in which synergistic feedback inhibition by L-lysine and L-threonine is substantially desensitized can be obtained by using a mutant strain in which synergistic feedback inhibition on the AK activity by L-lysine and L-threonine is substantially desensitized. The mutant strain can be obtained, for example, from a group of cells subjected to an ordinary mutation treatment, ultraviolet light irradiation, or a treatment with a mutating agent such as N-methyl-N'-nitro-N-nitrosoguanidine (NTG). The AK activity can be measured by using a method described in Miyajima, R. et al., The Journal of Biochemistry (1968), 63(2), 139-148.
Strains were prepared by introducing the wild type AK plasmid p399AKYB and the mutant AK plasmid p399AK9B respectively into AJ12036 strain (FERM P-7559) as a wild type strain of Corynebacterium glutamicum (Brevibacterium lactofermentum). The genes were introduced into Corynebacterium by means of an electric pulse method. The aspartokinase activity was measured for Corynebacterium glutamicum (Brevibacterium lactofermentum) AJ12036 strain as a host, AJ12690 strain harboring the wild type AK plasmid, and AJ12691 (FERM P12918) strain harboring the mutant AK plasmid. The activity was measured in accordance with an ordinary method (see Miyajima, R. et al., The Journal of Biochemistry (1968) 63(2), 139-148). […]
Strains were prepared by introducing 8 kinds of the plasmids shown in Table 3 into AJ12036 strain (FERM P-7559) as a wild type strain of Corynebacterium glutamicum (Brevibacterium lactofermentum) in the same manner as Example 3. The AK activity was measured for each of the strains. […] The desensitization degree of inhibition by lysine and/or threonine was similar to those in Example 6.

Series [2] concerns Corynebacterium glutamicum (Brevibacterium lactofermentum) AJ12036. In words: L-lysine productivity evaluated by cultivation in production medium. The format is cell-based. To be noted: plasmids introduced into AJ12036; cultivation as in Example 3. As for the experimental part:
The lysine productivity was evaluated by cultivation for the wild type strain AJ12036, the wild type AK plasmid-harboring strain AJ12690, and the mutant AK plasmid-harboring strain AJ12691 (FERM P-12918). The evaluation by cultivation was performed by inoculating the strains to a production medium (containing glucose 100 g, (NH4)2 SO4 55 g, KH2 PO4 1 g, MgSO4.7H2 O 1 g, soybean protein acid hydrolysate "Mamenou" (product of Ajinomoto Co., Ltd., trade name) 50 ml, FeSO4.7H2 O 10 mg, MnSO4.4H2 O 10 mg, nicotinic acid amide 5 mg, and CaCO3 50 g in 1 l of pure water, pH 8.0), and cultivating them with reciprocatory shaking at 31.5° C. for 72 hours. […] The plasmid-holding ratio upon completion of the cultivation was measured by using an index of chloramphenicol resistance as a drug resistance marker of the plasmid.
The lysine productivity was further evaluated by cultivation for the 9 kinds of these strains by using a method similar to that in Example 3.

For series [3], the system named is AK. Put plainly: Thermal stability of AK, treatment at 55° C. for 1.5 hour. The format is biochemical, Corynebacterium glutamicum. As for the experimental part:
The activity-holding ratio after a treatment at 55° C. for 90 minutes is indicated by %.
Thermal stability was investigated as an index of stability of the enzyme structure constructed by the introduction of mutation. The treatment condition was set at 55° C. for 1.5 hour in which the activity of the wild type AK was about 80%.

Where [4] appears, read: E. coli Gif106M1 cell-free extracts.

B1: Pro: mutant aspartokinase 279 Ala→Pro, plasmid p399AKAP (p399AKAPB) (protein, UniProt P26512 1-421, looked up, variant A279P)
Aspartokinase: MALVVQKYGGSSLESAERIRNVAERIVATKKAGNDVVVVCSAMGDTTDELLELAAAVNPVPPAREMDMLLTAGERISNALVAMAIESLGAEAQSFTGSQAGVLTTERHGNARIVDVTPGRVREALDEGKICIVAGFQGVNKETRDVTTLGRGGSDTTAVALAAALNADVCEIYSDVDGVYTADPRIVPNAQKLEKLSFEEMLELAAVGSKILVLRSVEYARAFNVPLRVRSSYSNDPGTLIAGSMEDIPVEEAVLTGVATDKSEAKVTVLGISDKPGEPAKVFRALADAEINIDMVLQNVSSVEDGTTDITFTCPRSDGRRAMEILKKLQVQGNWTNVLYDDQVGKVSLVGAGMKSHPGVTAEFMEALRDVNVNIELISTSEIRISVLIREDDLDAAARALHEQFQLGGEDEAVVYAGTGR
In the case of B1, in the series on AK [1] (setting [4]), the “concerted inhibition by lysine+threonine” value was “desensitized”, the “degree of activation by threonine” value was “not less than 120%”, the “inhibition by lysine alone as compared with the wild type” value was “mitigated” and the Specific activity is recorded as 2.8 mU/mg protein. The “specific activity relative to that of the wild type” value in the series with AK [1] (fraction of wild type specific activity) was “about 1/5”. In addition, in the series on AK [1], the “5 mM Lys + Thr (degree of desensitization of inhibition, activity-holding ratio)” value was found to be 103.8%; the “5 mM Lys (degree of desensitization of inhibition, activity-holding ratio)” value worked out at 76.9%; the “5 mM Thr (degree of desensitization of inhibition, activity-holding ratio)” value is recorded as 126.9%. In addition, in the series on aspartokinase, the “2 mM Lys + Thr (desensitization degree of inhibition)” value was determined as 85.2%, the “5 mM Lys (desensitization degree of inhibition)” value is given as 77.5%, the Specific activity was determined as 125.0 mU/mg protein and the “5 mM Thr (desensitization degree of inhibition)” value was determined as 123.2%. Also, the “degree of desensitization of inhibition, ranking” value in the series with aspartokinase (lysine alone, threonine alone and concerted inhibition, plasmids in AJ12036) is given as “highest degree of desensitization of inhibition”. In addition, the Lys--HCl in series [2] stood at 25.11 g/L.

B2: Ser: mutant aspartokinase 279 Ala→Ser, plasmid p399AKAS (p399AKASB) (protein, UniProt P26512 1-421, looked up, variant A279S)
Aspartokinase: MALVVQKYGGSSLESAERIRNVAERIVATKKAGNDVVVVCSAMGDTTDELLELAAAVNPVPPAREMDMLLTAGERISNALVAMAIESLGAEAQSFTGSQAGVLTTERHGNARIVDVTPGRVREALDEGKICIVAGFQGVNKETRDVTTLGRGGSDTTAVALAAALNADVCEIYSDVDGVYTADPRIVPNAQKLEKLSFEEMLELAAVGSKILVLRSVEYARAFNVPLRVRSSYSNDPGTLIAGSMEDIPVEEAVLTGVATDKSEAKVTVLGISDKPGESAKVFRALADAEINIDMVLQNVSSVEDGTTDITFTCPRSDGRRAMEILKKLQVQGNWTNVLYDDQVGKVSLVGAGMKSHPGVTAEFMEALRDVNVNIELISTSEIRISVLIREDDLDAAARALHEQFQLGGEDEAVVYAGTGR
As to B2, in the series on AK [1] (setting [4]), the “concerted inhibition by lysine+threonine” value was “enhanced”, the “inhibition by lysine alone as compared with the wild type” value is recorded as “equivalent to that in the wild type” and the Specific activity came out at 8.2 mU/mg protein. Besides, in the series with AK [1], the “5 mM Lys + Thr (degree of desensitization of inhibition, activity-holding ratio)” value stood at 18.4%; the “5 mM Lys (degree of desensitization of inhibition, activity-holding ratio)” value is on record as 52.6%; the “5 mM Thr (degree of desensitization of inhibition, activity-holding ratio)” value is 131.6%. In the series with aspartokinase, the “2 mM Lys + Thr (desensitization degree of inhibition)” value was found to be 37.0%, the “5 mM Lys (desensitization degree of inhibition)” value turned out to be 55.0%, the Specific activity stood at 406.8 mU/mg protein and the “5 mM Thr (desensitization degree of inhibition)” value stood at 114.4%. Also, the Lys--HCl in series [2] was 5.72 g/L.

B3: Asp: mutant aspartokinase 279 Ala→Asp, plasmid p399AKAD (protein, UniProt P26512 1-421, looked up, variant A279D)
Aspartokinase: MALVVQKYGGSSLESAERIRNVAERIVATKKAGNDVVVVCSAMGDTTDELLELAAAVNPVPPAREMDMLLTAGERISNALVAMAIESLGAEAQSFTGSQAGVLTTERHGNARIVDVTPGRVREALDEGKICIVAGFQGVNKETRDVTTLGRGGSDTTAVALAAALNADVCEIYSDVDGVYTADPRIVPNAQKLEKLSFEEMLELAAVGSKILVLRSVEYARAFNVPLRVRSSYSNDPGTLIAGSMEDIPVEEAVLTGVATDKSEAKVTVLGISDKPGEDAKVFRALADAEINIDMVLQNVSSVEDGTTDITFTCPRSDGRRAMEILKKLQVQGNWTNVLYDDQVGKVSLVGAGMKSHPGVTAEFMEALRDVNVNIELISTSEIRISVLIREDDLDAAARALHEQFQLGGEDEAVVYAGTGR
Regarding B3, in the series on AK [1] (setting [4]), the “AK activity” value is given as “inactivated” and the Specific activity came out at 1.5 mU/mg protein.

B4: Thr: mutant aspartokinase 279 Ala→Thr from AJ3463, plasmid p399AK9 (p399AK9B); SEQ ID NO: 4 and 6 (protein)
chain: MEEAVLTGVATDKSEAKVTVLGISDKPGETAKVFRALADAEINIDMVLQNVSSVEDGTTDITFTCPRADGRRAMEILKKLQVQGNWTNVLYDDQVGKVSLVGAGMKSHPGVTAEFMEALRDVNVNIELISTSEIRISVLIREDDLDAAARALHEQFQLGGEDEAVVYAGTGR
As for B4, the “thermal stability compared with the wild type” value in the series on AK [3] (FIG. 6) was “higher stability than that of the wild type”. Also, in the series on AK [1] (setting [4]), the “inhibition by lysine alone as compared with the wild type” value is “little improvement”, the “inhibition by threonine desensitized” value worked out at 100% and the Specific activity turned out to be 12.9 mU/mg protein. For the same molecule, in the series with AK [1], the “5 mM Lys + Thr (degree of desensitization of inhibition, activity-holding ratio)” value worked out at 50.4%; the “5 mM Lys (degree of desensitization of inhibition, activity-holding ratio)” value came to 47.0%; the “5 mM Thr (degree of desensitization of inhibition, activity-holding ratio)” value is recorded as 103.5%. Further, in the series with aspartokinase, the “2 mM Lys + Thr (desensitization degree of inhibition)” value was 78.3%, the “5 mM Lys (desensitization degree of inhibition)” value is reported as 58.7%, the Specific activity was 374.4 mU/mg protein and the “5 mM Thr (desensitization degree of inhibition)” value worked out at 109.1%. In series [2], this molecule returned a Lys--HCl of 24.25 g/L.

B5: Wild type: wild type aspartokinase of Corynebacterium glutamicum ATCC 13869, plasmid p399AKY (p399AKYB); SEQ ID NO: 3 and 5 (protein)
chain: MEEAVLTGVATDKSEAKVTVLGISDKPGEAAKVFRALADAEINIDMVLQNVSSVEDGTTDITFTCPRADGRRAMEILKKLQVQGNWTNVLYDDQVGKVSLVGAGMKSHPGVTAEFMEALRDVNVNIELISTSEIRISVLIREDDLDAAARALHEQFQLGGEDEAVVYAGTGR
B5: the “activity after thermal treatment (activity-holding ratio)” value in the series with AK [3] is reported as “about 80%”. The molecule also registered a Specific activity in the series on AK [1] (setting [4]) of 15.3 mU/mg protein. For the same molecule, in the series on AK [1], the “5 mM Lys + Thr (degree of desensitization of inhibition, activity-holding ratio)” value was 9.2%; the “5 mM Lys (degree of desensitization of inhibition, activity-holding ratio)” value is given as 42.3%; the “5 mM Thr (degree of desensitization of inhibition, activity-holding ratio)” value came to 62.3%. For the same molecule, in the series with aspartokinase, the “2 mM Lys + Thr (desensitization degree of inhibition)” value is 6.2%, the “5 mM Lys (desensitization degree of inhibition)” value was 52.7%, the Specific activity was determined as 316.4 mU/mg protein and the “5 mM Thr (desensitization degree of inhibition)” value was 86.8%. Further, the Lys--HCl in series [2] came to 0.00 g/L.

The values are drawn from US5688671A, “Mutant aspartokinase gene” (Ajinomoto Co., Inc., priority 1993, dated 1997).
